{"source": "patent US6531286", "about": "“Homogeneous detection of a target through nucleic acid ligand-ligand beacon interaction” (Gilead Sciences, Inc.)", "binders": {"B1": {"name": "Taq aptamer (ssDNA)", "DNA": "TGGCGGAGCGATCATCTCAGAGCATTCTTAGCGTTTTGTTCTTGTGTATGA"}}, "key": {"P-selectin [1]": {"molecular_target": "T1, P-selectin (Homo sapiens, UniProt P16109 P16109:42-771)", "T1 sequence (P16109 42-771, one chain of several)": "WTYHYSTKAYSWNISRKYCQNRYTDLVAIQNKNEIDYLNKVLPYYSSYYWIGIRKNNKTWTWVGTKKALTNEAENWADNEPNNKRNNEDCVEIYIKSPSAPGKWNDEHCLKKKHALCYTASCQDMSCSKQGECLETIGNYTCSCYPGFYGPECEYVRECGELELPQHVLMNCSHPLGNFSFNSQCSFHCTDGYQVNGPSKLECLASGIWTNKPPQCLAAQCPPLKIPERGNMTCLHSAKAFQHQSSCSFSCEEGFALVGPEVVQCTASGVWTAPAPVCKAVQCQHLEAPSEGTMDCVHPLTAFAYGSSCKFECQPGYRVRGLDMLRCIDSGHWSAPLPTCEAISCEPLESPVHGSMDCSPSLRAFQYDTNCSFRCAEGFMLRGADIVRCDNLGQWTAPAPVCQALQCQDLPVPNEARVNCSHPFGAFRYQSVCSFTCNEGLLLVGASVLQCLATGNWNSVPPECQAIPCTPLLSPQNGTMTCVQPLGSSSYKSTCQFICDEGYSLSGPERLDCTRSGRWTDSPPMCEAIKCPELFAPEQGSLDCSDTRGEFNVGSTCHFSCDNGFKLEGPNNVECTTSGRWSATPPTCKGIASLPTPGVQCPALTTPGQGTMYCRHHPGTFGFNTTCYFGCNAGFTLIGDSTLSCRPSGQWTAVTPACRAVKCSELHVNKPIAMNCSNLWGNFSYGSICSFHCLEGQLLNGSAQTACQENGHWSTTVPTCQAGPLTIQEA", "assay": "competition; specificity control, little or no fluorescence change; 200 nM aptamer, SHMCK, 4 uM tRNA, 37C", "details": "tags: R & D Systems", "experimental": "(§1) Specifically, L-Selectin nucleic acid ligand (200 nM) was mixed with increasing concentrations of P-Selectin in SHMCK buffer containing 4 µM tRNA. The mixture was incubated at 37° C. for 15 minutes. Then 220 nM L-Selectin ligand beacon was added and the mixture was incubated an additional 10 minutes at the same temperature and fluorescence was measured (FIG. 8C; (•)). P-Selectin nucleic acid ligand (200 nM) was mixed with increasing concentrations of L-Selectin in SHMCK buffer containing 4 µM tRNA at 37° C. for 15 minutes. Then 220 nM P-Selectin ligand beacon was added, incubated for an additional 10 minutes at the same temperature and fluorescence was measured (FIG. 8C; (○))."}, "L-selectin [2]": {"molecular_target": "T2, L-selectin (Homo sapiens, UniProt P14151 P14151:39-332)", "T2 sequence": "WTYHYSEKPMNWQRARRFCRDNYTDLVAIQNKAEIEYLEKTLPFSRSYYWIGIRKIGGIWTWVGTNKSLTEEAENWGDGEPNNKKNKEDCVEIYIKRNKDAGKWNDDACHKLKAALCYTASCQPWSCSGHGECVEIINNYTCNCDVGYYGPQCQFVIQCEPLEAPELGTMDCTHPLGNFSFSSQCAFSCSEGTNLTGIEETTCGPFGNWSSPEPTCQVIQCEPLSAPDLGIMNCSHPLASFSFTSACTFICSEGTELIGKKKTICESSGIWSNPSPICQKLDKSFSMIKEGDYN", "assay": "competition; ligand beacon (SEQ:6); 200 or 800 nM aptamer, SHMCK buffer 1 mM MgCl2 1 mM CaCl2, 4 uM tRNA, pH 7.4, 37C; also detected in plasma", "details": "tags: R & D Systems", "experimental": "(§2) Open circles represent the fluorescence signal obtained when the 100 nM PDGF aptamer was first incubated with 100 nM PDGF ligand beacon before the protein was added. Closed circles indicate the signal generated when 100 nM PDGF ligand beacon was mixed with increasing concentration of the PDGF AB-dimer in the absence of the aptamer. TAQ DNA Polymerase An assay using constant concentrations of TAQ nucleic acid ligand and TAQ ligand beacon, and varying concentrations of TAQ DNA polymerase, was carried out as described above. Again, the fluorescence emission decreased with increasing amounts of the ligand Taq Polymerase. Human L-Selectin A fixed concentration of L-selectin aptamer was mixed with increasing concentration of human L-selectin in SHMCK buffer [20 mM HEPES, 120 mM NaCl, 5 mM KCl, 1 mM MgCl_2, 1 mM CaCl_2, 4 µM tRNA, (pH 7.4)] and incubated for 10 minutes at 37° C. Then, L-selectin ligand beacon was added to a final concentration equivalent to that of the aptamer, incubated additional 10 minutes at 37° C. and fluorescence was measured. The results are depicted in FIGS. 7A and B. It can be seen that the dynamic range of the assay can be easily varied by changing the concentration of the nucleic acid ligand/ligand beacon pair. […] The fluorescence signal was then measured as described above. […]"}, "[3]": {"molecular_target": "T3, PDGF-AB (platelet-derived growth factor AB dimer) (Homo sapiens, UniProt P04085;P01127 P04085:87-211,P01127:82-190)", "T3 sequence (P01127 82-190, chain 2 of 2, other chains not shown)": "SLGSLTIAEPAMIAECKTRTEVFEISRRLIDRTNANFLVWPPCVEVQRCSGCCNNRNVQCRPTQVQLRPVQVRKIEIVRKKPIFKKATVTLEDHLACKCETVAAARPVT", "assay": "competition; ligand beacon (SEQ:2) fluorescence decreases with protein; 160 nM aptamer, PBSM buffer 1 mM MgCl2, 4 uM tRNA, pH 7.4, 37C; also detected in plasma; FIG. 3A lists aptamer as SEQ:10", "details": "tags: R & D Systems; chain copies: heterodimer A+B (stated); predicted 3-way junction", "experimental": "Example 5 Protein Detection Using Ligand Beacon Assays PDGF AB-Dimer The PDGF ligand beacon was used in an assay in which 160 nM PDGF nucleic acid ligand (SEQ ID NO:1) was mixed with an increasing concentration of PDGF AB-dimer in PBSM buffer [10.1 mM Na_2HPO_4, 1.8 mM KH_2PO_4, 137 mM NaCl, 2.7 mM KCl, 1 mM MgCl_2, 4 μM tRNA (pH 7.4)] for 10 minutes at 37° C. Then, ligand beacon (SEQ ID NO:2) was added to a final concentration of 160 nM and the mixture was incubated for 10 minutes at 37° C. A measurement of fluorescein emission at 530 nm was made for each concentration of PDGF using 488 nm monochromatic laser light for excitation in a 96 well format Vistra Fluorimager SI. The average value of fluorescence signals derived from duplicates was plotted against the corresponding log concentration of the concentration PDGF AB-dimer in nanomoles."}, "[4]": {"molecular_target": "T3, PDGF-AB (platelet-derived growth factor …)", "assay": "competition; specificity control, no concentration-dependent signal reduction; 100 nM aptamer, PBSM, 4 uM tRNA, 37C", "details": "tags: R & D Systems; chain copies: heterodimer A+B (stated); predicted stem-loop", "experimental": "In the example shown in FIG. 4C, TAQ-nucleic acid ligand (100 nM) was mixed with increasing concentrations of PDGF in PBSM buffer containing 4 μM tRNA at 37° C. for 10 minutes. Then 110 nM TAQ-ligand beacon was added, incubated for an additional 10 minutes at the same temperature and fluorescence was measured."}, "Taq DNA polymerase": {"molecular_target": "Taq DNA polymerase (Thermus aquaticus, UniProt P19821 P19821:1-832)", "sequence (P19821 whole entry, one chain of several)": "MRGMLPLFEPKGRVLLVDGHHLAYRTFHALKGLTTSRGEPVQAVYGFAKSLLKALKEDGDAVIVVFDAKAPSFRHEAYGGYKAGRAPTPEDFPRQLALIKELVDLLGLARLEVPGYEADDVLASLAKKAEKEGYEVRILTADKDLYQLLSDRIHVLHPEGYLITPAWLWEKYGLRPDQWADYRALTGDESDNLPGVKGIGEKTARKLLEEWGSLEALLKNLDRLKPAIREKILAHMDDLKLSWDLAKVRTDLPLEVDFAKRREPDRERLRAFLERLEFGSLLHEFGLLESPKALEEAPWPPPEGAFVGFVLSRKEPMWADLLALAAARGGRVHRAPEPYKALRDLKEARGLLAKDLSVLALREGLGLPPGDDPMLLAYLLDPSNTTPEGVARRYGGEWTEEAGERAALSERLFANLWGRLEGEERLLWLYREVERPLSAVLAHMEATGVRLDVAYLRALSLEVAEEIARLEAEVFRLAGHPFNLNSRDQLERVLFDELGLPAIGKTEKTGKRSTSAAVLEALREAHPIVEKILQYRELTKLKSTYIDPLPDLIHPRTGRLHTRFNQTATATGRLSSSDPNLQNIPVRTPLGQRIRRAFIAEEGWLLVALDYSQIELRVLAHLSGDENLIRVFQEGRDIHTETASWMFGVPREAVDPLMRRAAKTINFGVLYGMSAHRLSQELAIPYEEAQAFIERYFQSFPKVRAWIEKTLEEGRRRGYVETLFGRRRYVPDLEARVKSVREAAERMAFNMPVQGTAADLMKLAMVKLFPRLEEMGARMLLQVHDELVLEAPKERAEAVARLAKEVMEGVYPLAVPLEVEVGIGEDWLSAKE", "assay": "competition; ligand beacon (SEQ:4) fluorescence decreases with protein; PBSM buffer, 4 uM tRNA, 37C; FIG. 3A lists aptamer as SEQ:9", "details": "tags: Roche Molecular Systems; predicted stem-loop", "experimental": "as §2"}, "P-selectin [5]": {"molecular_target": "T1, P-selectin", "assay": "competition; ligand beacon (SEQ:8); 200 nM aptamer, SHMCK buffer 1 mM MgCl2 1 mM CaCl2, 4 uM tRNA, pH 7.4, 37C; also detected in plasma; FIG. 3A lists aptamer as SEQ:12", "details": "tags: R & D Systems", "experimental": "as §2, with “Human L-Selectin A fixed concentration of L-selectin aptamer was mixed with increasing concentration of human L-selectin in SHMCK buffer [20 mM HEPES, 120 mM NaCl, 5 mM KCl, 1 mM MgCl_2, 1 mM CaCl_2, 4 µM tRNA, (pH 7.4)] and incubated for 10 minutes at 37° C.” left out, “measured.” for “measured. The results are depicted in FIGS. 7A and B. It can be seen that the dynamic range of the assay can be easily varied by changing the concentration of the nucleic acid ligand/ligand beacon pair.”\nP-selectin aptamer (200 nM) was mixed with increasing concentration of human P-selectin in SHMCK buffer [20 mM HEPES, 120 mM NaCl, 5 mM KCl, 1 mM MgCl_2, 1 mM CaCl_2, 4µM tRNA, (pH 7.4)] and incubated for 10 minutes at 37° C. Then, P-selectin ligand beacon was added to a final concentration of 200 nM, incubated for additional 10 minutes at 37° C. and fluorescence was measured. […]"}, "L-selectin [6]": {"molecular_target": "T2, L-selectin", "assay": "competition; specificity control, little or no fluorescence change; 200 nM aptamer, SHMCK, 4 uM tRNA, 37C", "details": "tags: R & D Systems", "experimental": "as §1"}}, "data": [{"binder": "TAGCCAAGGTAACCAGTACAAGGTGCTAAACGTAATGGCTTCGGCTTAC (ssDNA)", "note": "[L-selectin aptamer]", "values": [{"measurement": "binding result", "setting": "P-selectin [1]", "result": "no binding"}, {"measurement": "binding result", "setting": "L-selectin [2]", "result": "binds"}]}, {"binder": "TGGGAGGGCGCGTTCTTCGTGGTTACTTTTAGTCCCGT (ssDNA)", "note": "[PDGF aptamer]", "values": [{"measurement": "binding result", "setting": "[3]", "result": "binds"}]}, {"binder": "B1", "values": [{"measurement": "binding result", "setting": "[4]", "result": "no binding"}, {"measurement": "binding result", "setting": "Taq DNA polymerase", "result": "binds"}]}, {"binder": "CUCAACGAGCCAGGAACAUCGAGGUCAGCAAACGCGAG (ssRNA, 2'-F at all pyrimidines)", "note": "[P-selectin aptamer]", "values": [{"measurement": "binding result", "setting": "P-selectin [5]", "result": "binds"}, {"measurement": "binding result", "setting": "L-selectin [6]", "result": "no binding"}]}]}
